One series concerns the target T1, human Cathepsin K (Homo sapiens, UniProt P43235).
T1 construct: purchased Sigma-Aldrich; host or cells: E. coli
T1 sequence (P43235 115-329): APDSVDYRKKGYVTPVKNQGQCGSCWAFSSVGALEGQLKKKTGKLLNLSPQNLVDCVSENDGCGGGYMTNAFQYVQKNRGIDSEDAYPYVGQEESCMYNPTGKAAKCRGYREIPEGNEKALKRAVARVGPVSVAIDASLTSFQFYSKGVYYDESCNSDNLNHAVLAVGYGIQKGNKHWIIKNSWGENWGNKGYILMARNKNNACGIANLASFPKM
Description: Cathepsin K assay, hydrolysis of conjugates by human Cathepsin K. Format: biochemical. The settings on record: conjugate 100 uM, CatK 0.2 uM, pH 5.5, 37 C. As to the method:
(§1) Cathepsin K rat (recombinant, expressed in E. coli) was obtained from Merck as a gift. […] Enzyme activity was assayed using the Cathepsin K standard substrate Z-Leu-Arg-AMC. […] The appearances of released self-immolative linker 4-aminobenyl alcohol were recorded.

Another series addresses T2, rat Cathepsin K (Rattus norvegicus, UniProt O35186).
T2 construct: Merck (gift); host or cells: E. coli
T2 sequence (O35186 115-329): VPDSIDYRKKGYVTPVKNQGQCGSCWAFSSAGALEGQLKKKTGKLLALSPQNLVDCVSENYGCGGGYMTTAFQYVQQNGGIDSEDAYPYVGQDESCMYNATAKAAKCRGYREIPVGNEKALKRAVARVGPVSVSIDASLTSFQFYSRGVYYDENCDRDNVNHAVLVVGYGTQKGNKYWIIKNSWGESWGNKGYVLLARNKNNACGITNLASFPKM
As to the kind of experiment: Cathepsin K assay, hydrolysis of conjugates by rat Cathepsin K. Format: biochemical. The settings on record: conjugate 100 uM, CatK 0.2 uM, pH 5.5, 37 C. The method, then:
as §1

Series [1] in a line: Rat organ distribution, uptake and release of conjugate 17a in rat bone. Format: in vivo. As to the method: (§2) Female Sprague Dawley rats (Charles River) were about 13 weeks old when received. They were acclimatized to the facility and operators, and were randomly divided to five groups: 6 hour, 1-, 7, 14 and -28 day. Dose: [^3H]-17a: 8.90 μCi/rat, [^14C]-17a 1.77 uCi/rat, and 17a 5.0 mg/kg. Formulation: conjugate 17a was suspended in Poloxamer 188 solution 10%, and adjusted to pH 8.0 by NaHCO3, then diluted by equal volume of PBS. The dosing was done with a fixed volume of 500 μL. The bolus injection and blood sampling were done via the tail vein. […] Long bones were harvested and counted.
After 6 h, 1, 7, 14, 28 days three animals were weighed, sacrificed by CO2 and blood, fat, muscle, brain, heart, kidney, spleen, liver and bone were dissected and cleaned free of any loose tissue. The amount of radioactivity was determined by incineration in a R. J. Harvey OX300 Biological Oxidizer. The percent of the compound retained in the skeleton and the other organs at each time point was calculated by measuring activity per gram (μCi/g) in the collected samples and extrapolating to total activity retained in the skeleton and the other organs, the weight of skeleton was calculated by 8% of the body weight, the weight of the other organs was measured by balance. […] Table 3 and FIGS. 7A-E show rat organ distribution, uptake and release of a representative conjugate compound 17a.

Series [2] is described as follows: Analysis of the blood samples, level of tritiated 17a in blood. As to conditions: rat, tail vein bolus, [3H]-17a. Format: in vivo. As to the method:
as §2
Three Female Sprague Dawley rats (Charles River) were about 23 weeks old when received. They were acclimatized to the facility and operators. Dose: [^3H]-17a: 31.0 μCi/rat. Blood samples (0.5 mL per time point per rat) were taken from the 6-hour group of rats 0.5, 1, 2, 4, 6 hour and placed in heparinized micro-centrifuge tubes. Blood samples from the (500 μL) were centrifuged at ˜5000×G until plasma had separated. 100 μL of the supernatant was analyzed in a Harvey OX-300 biological oxidizer using the four-minute program. The collected scintillation mixture was counted on a Beckman Coulter LS-6500 scintillation counter. The counting time was two minute.

The values that follow come from patent US9650414B1, “Dual-action EP4 agonist—bisphosphonate conjugates and uses thereof” (Simon Fraser University, priority 2014, dated 2017).

Take `N=C(N)NCCC[C@H](NC(=O)[C@@H]1CCCN1C(=O)OCc1ccccc1)C(=O)Nc1ccc(COC(=O)NCCCC(O)(P(=O)(O)O)P(=O)(O)O)cc1` [Compound 6, (4-((((4-((S)-2-((S)-1-((benzyloxy)carbonyl)pyrrolidine-2-carboxamido)-5-guanidinopentanamido)benzyl)oxy)carbonyl)amino)-1-hydroxybutane-1,1-diyl)bis(phosphonic acid)]: the “hydrolysis by Hum CatK” value on human Cathepsin K (1 hour) turned out to be 90%; on human Cathepsin K (2 hour) it was 98%. Further, the “hydrolysis by Rat CatK” value on rat Cathepsin K (1 hour) is 5%; on rat Cathepsin K (2 hour), 10%; at rat Cathepsin K (20 hour) it was 52%.
As to `CC(C)C[C@H](NC(=O)OCc1ccccc1)C(=O)N[C@@H](CCCNC(=N)N)C(=O)Nc1ccc(COC(=O)NCCCC(O)(P(=O)(O)O)P(=O)(O)O)cc1` [Compound 7], the figures for the “hydrolysis by Hum CatK” value at human Cathepsin K (1 hour), on human Cathepsin K (2 hour) and on human Cathepsin K (3 hour) were 66%, 75% and 79 (3 hour) %, respectively. In addition, the “hydrolysis by Rat CatK” value at rat Cathepsin K (1 hour) is 73%; on rat Cathepsin K (2 hour) it was 80%; at rat Cathepsin K (20 hour), 95%.
With `N=C(N)NCCC[C@H](NC(=O)[C@@H]1CCCN1C(=O)CNC(=O)OCc1ccccc1)C(=O)Nc1ccc(COC(=O)NCCCC(O)(P(=O)(O)O)P(=O)(O)O)cc1` [Compound 8, (4-((((4-((S)-2-((S)-1-(((benzyloxy)carbonyl)glycyl)pyrrolidine-2-carboxamido)-5-guanidinopentanamido)benzyl)oxy)carbonyl)amino)-1-hydroxybutane-1,1-diyl)bis(phosphonic acid)], the “hydrolysis by Hum CatK” value is listed as 91% at human Cathepsin K (1 hour) and 100% on human Cathepsin K (2 hour). Moreover, the “hydrolysis by Rat CatK” value on rat Cathepsin K (1 hour) was found to be 11%; on rat Cathepsin K (2 hour) it was 20%; on rat Cathepsin K (20 hour), 80%.
Take `CCOC(=O)CCCCCCN1C(=O)CC[C@@H]1/C=C/[C@@H](OC(=O)Cc1ccc(COC(=O)N[C@@H](CC(C)C)C(=O)N[C@@H](CCCNC(=N)N)C(=O)Nc2ccc(COC(=O)NCCCC(O)(P(=O)(O)O)P(=O)(O)O)cc2)cc1)C(F)(F)c1ccccc1` [Compound 17a, (4-((((4-((S)-2-((S)-2-((((4-(2-(((R,E)-4-((R)-1-(7-ethoxy-7-oxoheptyl)-5-oxopyrrolidin-2-yl)-1,1-difluoro-1-phenylbut-3-en-2-yl)oxy)-2-oxoethyl)benzyl)oxy)carbonyl)amino)-4-methylpentanamido)-5-guanidinopentanamido)benzyl)oxy)carbonyl)amino)-1-hydroxybutane-1,1-diyl)bis(phosphonic acid)]: the “behavior or reaction of dosed animals” value in series [1] (17a 5.0 mg/kg, tail vein bolus) is recorded as “no unusual behavior or reaction to the drug treatment”. Further, the distribution of radio-activity entry in series [1] (at 6 hours) is “most radio-activity was observed in liver and bones”; in series [1] (by 7 days), “only bones had a significant amount of radio-activity”. Also, the results for the uptake in series [1] (by 3H) and in series [1] (by 14C) were 2% and roughly 5%, respectively. In addition, the “Percentage of dose in Bone” value is recorded as 2.12% in series [1] (tail vein bolus, 3H, 1-day); 2.10% in series [1] (tail vein bolus, 3H, 6-hour); 1.30% in series [1] (tail vein bolus, 3H, 7-day); 0.80% in series [1] (tail vein bolus, 3H, 14-day); 0.74% in series [1] (tail vein bolus, 3H, 28-day); 4.63% in series [1] (tail vein bolus, 14C, 1-day). Further, the “Percentage of dose in Bone” value in series [1] (tail vein bolus, 14C, 6-hour) is 5.52%; in series [1] (tail vein bolus, 14C, 7-day), 3.51%; in series [1] (tail vein bolus, 14C, 14-day), 2.52%; in series [1] (tail vein bolus, 14C, 28-day), 2.44%. In addition, the “Percentage of dose in Brain” value in series [1] (tail vein bolus, 3H, 1-day) was 0.025%; in series [1] (tail vein bolus, 3H, 6-hour) it was 0.022%; in series [1] (tail vein bolus, 3H, 7-day), “LOD”; in series [1] (tail vein bolus, 3H, 14-day) it was “LOD”; in series [1] (tail vein bolus, 3H, 28-day), “LOD”; in series [1] (tail vein bolus, 14C, 1-day), 0.012%. The “Percentage of dose in Brain” value in series [1] (tail vein bolus, 14C, 6-hour) is given as 0.014%; in series [1] (tail vein bolus, 14C, 7-day), “LOD”; in series [1] (tail vein bolus, 14C, 14-day) it was “LOD”; in series [1] (tail vein bolus, 14C, 28-day), “LOD”. The “Percentage of dose in Heart” value is 0.021% in series [1] (tail vein bolus, 3H, 1-day); 0.025% in series [1] (tail vein bolus, 3H, 6-hour); 0.014% in series [1] (tail vein bolus, 3H, 7-day); “LOD” in series [1] (tail vein bolus, 3H, 14-day); “LOD” in series [1] (tail vein bolus, 3H, 28-day); 0.009% in series [1] (tail vein bolus, 14C, 1-day). Further, the “Percentage of dose in Heart” value in series [1] (tail vein bolus, 14C, 6-hour) was 0.017%; in series [1] (tail vein bolus, 14C, 7-day), “LOD”; in series [1] (tail vein bolus, 14C, 14-day), “LOD”; in series [1] (tail vein bolus, 14C, 28-day) it was “LOD”. For the same compound, the “Percentage of dose in Kidney” value was 0.11% in series [1] (tail vein bolus, 3H, 1-day); 0.21% in series [1] (tail vein bolus, 3H, 6-hour); 0.053% in series [1] (tail vein bolus, 3H, 7-day); 0.026% in series [1] (tail vein bolus, 3H, 14-day); 0.017% in series [1] (tail vein bolus, 3H, 28-day); 0.047% in series [1] (tail vein bolus, 14C, 1-day). The “Percentage of dose in Kidney” value is listed as 0.11% in series [1] (tail vein bolus, 14C, 6-hour); 0.020% in series [1] (tail vein bolus, 14C, 7-day); 0.013% in series [1] (tail vein bolus, 14C, 14-day); 0.0092% in series [1] (tail vein bolus, 14C, 28-day). Moreover, the “Percentage of dose in Liver” value is listed as 2.33% in series [1] (tail vein bolus, 3H, 1-day); 8.95% in series [1] (tail vein bolus, 3H, 6-hour); 0.48% in series [1] (tail vein bolus, 3H, 7-day); 0.30% in series [1] (tail vein bolus, 3H, 14-day); 0.08% in series [1] (tail vein bolus, 3H, 28-day); 2.50% in series [1] (tail vein bolus, 14C, 1-day). For the same compound, the “Percentage of dose in Liver” value came to 7.03% in series [1] (tail vein bolus, 14C, 6-hour); 0.61% in series [1] (tail vein bolus, 14C, 7-day); 0.27% in series [1] (tail vein bolus, 14C, 14-day); 0.10% in series [1] (tail vein bolus, 14C, 28-day). Also, the “Percentage of dose in Spleen” value in series [1] (tail vein bolus, 3H, 1-day) came out at 0.22%; in series [1] (tail vein bolus, 3H, 6-hour), 0.35%; in series [1] (tail vein bolus, 3H, 7-day), 0.076%; in series [1] (tail vein bolus, 3H, 14-day), 0.039%; in series [1] (tail vein bolus, 3H, 28-day) it was 0.037%; in series [1] (tail vein bolus, 14C, 1-day) it was 0.23%. Further, the “Percentage of dose in Spleen” value in series [1] (tail vein bolus, 14C, 6-hour) was determined as 0.34%; in series [1] (tail vein bolus, 14C, 7-day), 0.086%; in series [1] (tail vein bolus, 14C, 14-day) it was 0.050%; in series [1] (tail vein bolus, 14C, 28-day), 0.039%. Further, in series [2], the “clearance from circulating blood, t1/2” value is roughly 30 min.
